Where two headings read alike, the source gives them in different places. Blank lines part the entries; values can stand above or below the substance they belong to.
What was measured:
Assay in all cases: rosette formation
[1] = target: C receptor type 1, the C3b receptor (human (endogenous in erythrocytes, monocytes and neutrophils)) (UniProt P17927)
[2] = target: C receptor type 2, the C3d receptor (human (endogenous in Raji)) (UniProt P20023)
[3] = target: C receptor type 1, the C3b receptor (human (endogenous in erythrocytes, monocytes and neutrophils)) (UniProt P17927); remark: listed apart in the source
[4] = target: C receptor type 3, iC3b receptor (human (endogenous in monocytes and neutrophils)) (UniProt P11215)
[5] = target: C receptor type 1, the C3b receptor (human (endogenous in erythrocytes, monocytes and neutrophils)) (UniProt P17927); remark: listed apart in the source
[6] = target: C receptor type 1, the C3b receptor (human (endogenous in erythrocytes, monocytes and neutrophils)) (UniProt P17927); remark: listed apart in the source
[7] = target: C receptor type 3, iC3b receptor (human (endogenous in monocytes and neutrophils)) (UniProt P11215); remark: listed apart in the source

C receptor type 1, the C3b receptor (human (endogenous in erythrocytes, monocytes and neutrophils)), sequence (P17927 42-2039): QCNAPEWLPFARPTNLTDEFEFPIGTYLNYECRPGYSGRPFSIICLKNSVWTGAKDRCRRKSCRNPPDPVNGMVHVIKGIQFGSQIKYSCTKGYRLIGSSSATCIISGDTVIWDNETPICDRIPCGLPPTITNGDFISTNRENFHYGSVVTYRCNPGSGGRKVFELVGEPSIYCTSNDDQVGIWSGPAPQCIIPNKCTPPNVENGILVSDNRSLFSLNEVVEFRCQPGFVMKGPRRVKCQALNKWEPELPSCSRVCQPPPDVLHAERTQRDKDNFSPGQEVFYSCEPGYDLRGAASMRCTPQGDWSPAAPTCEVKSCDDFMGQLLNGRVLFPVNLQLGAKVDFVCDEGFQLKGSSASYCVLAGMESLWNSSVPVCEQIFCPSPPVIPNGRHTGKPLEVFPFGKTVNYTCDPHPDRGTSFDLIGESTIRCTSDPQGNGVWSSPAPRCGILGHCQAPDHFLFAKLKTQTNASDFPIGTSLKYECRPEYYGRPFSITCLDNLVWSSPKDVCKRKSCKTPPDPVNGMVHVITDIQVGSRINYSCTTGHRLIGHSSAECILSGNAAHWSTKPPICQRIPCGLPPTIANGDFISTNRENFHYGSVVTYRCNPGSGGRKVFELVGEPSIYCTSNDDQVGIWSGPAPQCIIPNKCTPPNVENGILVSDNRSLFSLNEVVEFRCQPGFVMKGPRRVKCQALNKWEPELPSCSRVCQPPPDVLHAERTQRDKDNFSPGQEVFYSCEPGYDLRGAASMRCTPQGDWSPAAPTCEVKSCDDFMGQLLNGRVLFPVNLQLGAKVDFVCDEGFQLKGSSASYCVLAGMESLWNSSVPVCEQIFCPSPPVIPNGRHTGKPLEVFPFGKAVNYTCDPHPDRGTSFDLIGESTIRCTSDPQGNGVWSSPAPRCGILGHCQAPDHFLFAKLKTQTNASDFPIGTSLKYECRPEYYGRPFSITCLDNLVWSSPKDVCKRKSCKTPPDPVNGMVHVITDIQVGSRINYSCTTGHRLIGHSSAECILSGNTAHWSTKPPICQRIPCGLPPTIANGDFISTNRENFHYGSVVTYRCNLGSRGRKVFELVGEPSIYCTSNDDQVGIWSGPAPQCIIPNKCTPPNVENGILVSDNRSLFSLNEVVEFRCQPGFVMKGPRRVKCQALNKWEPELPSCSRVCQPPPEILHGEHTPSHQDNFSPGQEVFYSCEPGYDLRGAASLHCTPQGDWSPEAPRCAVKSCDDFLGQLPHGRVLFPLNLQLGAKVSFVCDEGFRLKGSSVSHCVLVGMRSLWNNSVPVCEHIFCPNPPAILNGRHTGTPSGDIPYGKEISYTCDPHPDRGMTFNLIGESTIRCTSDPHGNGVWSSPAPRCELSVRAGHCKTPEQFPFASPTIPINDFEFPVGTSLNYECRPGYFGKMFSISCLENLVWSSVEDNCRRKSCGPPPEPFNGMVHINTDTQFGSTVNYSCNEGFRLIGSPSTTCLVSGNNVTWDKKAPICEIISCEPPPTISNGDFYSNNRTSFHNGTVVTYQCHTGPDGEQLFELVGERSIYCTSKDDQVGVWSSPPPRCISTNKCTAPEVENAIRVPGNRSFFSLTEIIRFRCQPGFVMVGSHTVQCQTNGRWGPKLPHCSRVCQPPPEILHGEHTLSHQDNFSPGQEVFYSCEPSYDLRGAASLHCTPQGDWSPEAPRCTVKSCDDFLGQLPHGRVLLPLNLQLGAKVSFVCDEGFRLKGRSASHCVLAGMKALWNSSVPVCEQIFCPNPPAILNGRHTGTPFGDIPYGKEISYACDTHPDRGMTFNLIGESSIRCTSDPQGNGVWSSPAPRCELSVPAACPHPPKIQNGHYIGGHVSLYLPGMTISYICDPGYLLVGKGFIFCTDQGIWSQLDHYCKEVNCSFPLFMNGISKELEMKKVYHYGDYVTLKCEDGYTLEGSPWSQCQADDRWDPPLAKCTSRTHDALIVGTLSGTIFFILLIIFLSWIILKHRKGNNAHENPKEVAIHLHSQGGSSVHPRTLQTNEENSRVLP
C receptor type 2, the C3d receptor (human (endogenous in Raji)), sequence (P20023 21-1033): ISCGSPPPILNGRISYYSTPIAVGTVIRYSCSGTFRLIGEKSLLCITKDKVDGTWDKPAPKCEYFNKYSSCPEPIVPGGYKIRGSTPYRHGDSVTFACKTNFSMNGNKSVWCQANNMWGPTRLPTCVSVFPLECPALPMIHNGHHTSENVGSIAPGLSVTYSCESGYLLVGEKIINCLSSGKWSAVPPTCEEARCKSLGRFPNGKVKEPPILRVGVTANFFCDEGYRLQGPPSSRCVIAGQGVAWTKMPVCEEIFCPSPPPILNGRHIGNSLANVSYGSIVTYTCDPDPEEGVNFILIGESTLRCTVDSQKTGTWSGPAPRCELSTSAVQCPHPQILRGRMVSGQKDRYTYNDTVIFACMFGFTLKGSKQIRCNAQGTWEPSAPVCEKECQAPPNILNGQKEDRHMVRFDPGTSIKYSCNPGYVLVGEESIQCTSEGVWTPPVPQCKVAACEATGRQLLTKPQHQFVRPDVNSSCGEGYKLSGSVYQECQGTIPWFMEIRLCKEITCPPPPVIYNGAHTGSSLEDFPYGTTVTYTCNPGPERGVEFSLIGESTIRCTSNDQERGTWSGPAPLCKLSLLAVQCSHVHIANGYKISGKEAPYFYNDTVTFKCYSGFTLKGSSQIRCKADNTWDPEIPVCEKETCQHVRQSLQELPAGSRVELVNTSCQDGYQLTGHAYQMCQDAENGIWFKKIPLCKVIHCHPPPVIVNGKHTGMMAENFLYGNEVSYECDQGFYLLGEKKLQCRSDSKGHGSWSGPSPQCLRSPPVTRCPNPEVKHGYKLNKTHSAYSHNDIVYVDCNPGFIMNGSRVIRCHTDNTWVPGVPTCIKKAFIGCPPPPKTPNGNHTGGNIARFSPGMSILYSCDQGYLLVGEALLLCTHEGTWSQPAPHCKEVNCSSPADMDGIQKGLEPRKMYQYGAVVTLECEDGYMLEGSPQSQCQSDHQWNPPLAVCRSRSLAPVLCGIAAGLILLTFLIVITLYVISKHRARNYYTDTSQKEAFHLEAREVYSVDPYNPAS
C3c, sequence (P01024 23-1663): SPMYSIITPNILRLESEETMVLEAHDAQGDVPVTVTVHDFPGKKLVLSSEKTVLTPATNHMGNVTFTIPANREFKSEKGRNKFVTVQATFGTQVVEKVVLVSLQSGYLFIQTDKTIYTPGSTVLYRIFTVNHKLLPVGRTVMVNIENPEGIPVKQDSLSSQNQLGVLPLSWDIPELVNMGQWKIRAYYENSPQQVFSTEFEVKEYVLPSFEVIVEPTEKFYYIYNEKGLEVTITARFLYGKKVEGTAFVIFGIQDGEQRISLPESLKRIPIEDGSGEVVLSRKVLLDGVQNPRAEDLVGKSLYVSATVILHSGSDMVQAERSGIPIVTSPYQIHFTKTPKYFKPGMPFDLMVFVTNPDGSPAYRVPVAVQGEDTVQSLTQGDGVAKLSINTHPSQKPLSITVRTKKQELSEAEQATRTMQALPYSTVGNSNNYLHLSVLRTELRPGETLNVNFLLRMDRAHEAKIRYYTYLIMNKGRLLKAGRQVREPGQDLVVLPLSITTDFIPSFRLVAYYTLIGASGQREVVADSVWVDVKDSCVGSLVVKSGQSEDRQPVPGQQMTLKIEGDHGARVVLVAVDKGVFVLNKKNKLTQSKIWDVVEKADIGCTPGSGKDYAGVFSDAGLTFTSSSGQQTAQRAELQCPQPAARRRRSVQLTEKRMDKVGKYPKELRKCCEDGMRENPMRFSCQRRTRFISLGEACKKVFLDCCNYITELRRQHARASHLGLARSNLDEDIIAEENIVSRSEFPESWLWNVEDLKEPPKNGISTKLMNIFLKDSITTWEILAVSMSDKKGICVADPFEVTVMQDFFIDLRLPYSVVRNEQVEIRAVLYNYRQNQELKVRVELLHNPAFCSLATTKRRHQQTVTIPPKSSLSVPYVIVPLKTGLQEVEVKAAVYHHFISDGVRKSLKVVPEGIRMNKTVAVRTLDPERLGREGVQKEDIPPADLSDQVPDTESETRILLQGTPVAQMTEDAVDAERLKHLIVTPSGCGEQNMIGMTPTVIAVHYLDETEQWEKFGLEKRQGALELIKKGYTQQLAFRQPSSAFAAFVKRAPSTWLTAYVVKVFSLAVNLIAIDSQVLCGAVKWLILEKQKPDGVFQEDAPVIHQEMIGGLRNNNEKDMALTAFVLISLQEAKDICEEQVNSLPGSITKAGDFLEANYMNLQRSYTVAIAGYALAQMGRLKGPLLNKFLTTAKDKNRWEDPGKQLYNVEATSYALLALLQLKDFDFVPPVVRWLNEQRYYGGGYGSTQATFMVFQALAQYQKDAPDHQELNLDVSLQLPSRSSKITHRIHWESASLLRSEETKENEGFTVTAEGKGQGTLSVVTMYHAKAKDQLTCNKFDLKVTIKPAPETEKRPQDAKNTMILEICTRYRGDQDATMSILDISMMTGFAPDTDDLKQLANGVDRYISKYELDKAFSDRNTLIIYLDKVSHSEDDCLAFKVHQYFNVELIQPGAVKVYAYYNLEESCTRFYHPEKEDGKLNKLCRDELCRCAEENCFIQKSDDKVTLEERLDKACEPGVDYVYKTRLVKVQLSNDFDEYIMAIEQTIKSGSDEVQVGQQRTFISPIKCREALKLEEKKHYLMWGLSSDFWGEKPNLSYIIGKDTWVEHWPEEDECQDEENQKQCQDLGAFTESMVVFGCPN

- % rosette formation (C3c microspheres, erythrocytes, buffer) [1]: 72%
- % rosette formation (C3c microspheres, monocytes, buffer) [1]: 80%
Substance: C3c (from UniProt P01024 23-667; P01024 749-954; P01024 1321-1663) (domain or fragment)

- % rosette formation (C3d,g microspheres, Raji cells, buffer) [2]: 99%
- % rosette formation (Raji cells, 6.9 x 10^4 C3d,g per E, buffer) [2]: 99%
Substance: C3d,g (from UniProt P01024 1002-1303) (domain or fragment)

- % rosette formation (erythrocytes, 14 x 10^3 iC3b per E) [3]: 10%
- % rosette formation (erythrocytes, 37 x 10^3 iC3b per E) [3]: 22%
- % rosette formation (erythrocytes, 65 x 10^3 iC3b per E) [3]: 32%
- % rosette formation (monocytes treated with anti-Mac-1, 14 x 10^3 iC3b per E) [3]: 13%
- % rosette formation (monocytes treated with anti-Mac-1, 65 x 10^3 iC3b per E) [3]: 81%
- % rosette formation (monocytes, 14 x 10^3 iC3b per E) [3]: 18%
- % rosette formation (monocytes, 65 x 10^3 iC3b per E) [3]: 85%
- % rosette formation (neutrophils treated with anti-Mac-1, 14 x 10^3 iC3b per E) [3]: 9%
- % rosette formation (neutrophils treated with anti-Mac-1, 65 x 10^3 iC3b per E) [3]: 86%
- % rosette formation (neutrophils, 14 x 10^3 iC3b per E) [3]: 11%
- % rosette formation (neutrophils, 37 x 10^3 iC3b per E) [3]: 84%
- % rosette formation (neutrophils, 65 x 10^3 iC3b per E) [3]: 88%
- % rosette formation (monocytes treated with anti-CR1, 14 x 10^3 iC3b per E) [4]: 74%
- % rosette formation (monocytes treated with anti-CR1, 65 x 10^3 iC3b per E) [4]: 85%
- % rosette formation (monocytes, 7.9 x 10^3 iC3b per E) [4]: 59%
- % rosette formation (neutrophils treated with anti-CR1, 14 x 10^3 iC3b per E) [4]: 79%
- % rosette formation (neutrophils treated with anti-CR1, 65 x 10^3 iC3b per E) [4]: 92%
- % rosette formation (erythrocytes, 37 x 10^3 iC3b per E) [5]: 15%
- % rosette formation (erythrocytes, 65 x 10^3 iC3b per E) [5]: 22%
- % rosette formation (monocytes treated with anti-Mac-1, 14 x 10^3 iC3b per E) [5]: 5%
- % rosette formation (monocytes treated with anti-Mac-1, 65 x 10^3 iC3b per E) [5]: 75%
- % rosette formation (neutrophils treated with anti-Mac-1, 14 x 10^3 iC3b per E) [5]: 4%
- % rosette formation (neutrophils treated with anti-Mac-1, 65 x 10^3 iC3b per E) [5]: 95%
- % rosette formation (erythrocytes, 37 x 10^3 iC3b per E) [6]: 5%
- % rosette formation (erythrocytes, 65 x 10^3 iC3b per E) [6]: 8%
- % rosette formation (monocytes treated with anti-Mac-1, 14 x 10^3 iC3b per E) [6]: 6%
- % rosette formation (monocytes treated with anti-Mac-1, 65 x 10^3 iC3b per E) [6]: 74%
- % rosette formation (monocytes, 14 x 10^3 iC3b per E) [6]: 8%
- % rosette formation (monocytes, 65 x 10^3 iC3b per E) [6]: 77%
- % rosette formation (neutrophils treated with anti-Mac-1, 14 x 10^3 iC3b per E) [6]: 3%
- % rosette formation (neutrophils treated with anti-Mac-1, 65 x 10^3 iC3b per E) [6]: 93%
- % rosette formation (neutrophils, 14 x 10^3 iC3b per E) [6]: 2%
- % rosette formation (neutrophils, 37 x 10^3 iC3b per E) [6]: 78%
- % rosette formation (neutrophils, 65 x 10^3 iC3b per E) [6]: 97%
- % rosette formation (anti-CR1-treated monocytes, 1.4 x 10^4 iC3b per E, BDVA) [7]: 84%
- % rosette formation (anti-CR1-treated monocytes, 7.9 x 10^3 iC3b per E, BDVA) [7]: 44%
- % rosette formation (monocytes treated with anti-CR1, 14 x 10^3 iC3b per E) [7]: 95%
- % rosette formation (monocytes treated with anti-CR1, 65 x 10^3 iC3b per E) [7]: 94%
- % rosette formation (monocytes, 7.9 x 10^3 iC3b per E) [7]: 86%
- % rosette formation (neutrophils treated with anti-CR1, 14 x 10^3 iC3b per E) [7]: 100%
- % rosette formation (neutrophils treated with anti-CR1, 65 x 10^3 iC3b per E) [7]: 100%
- % rosette formation (erythrocytes, 14 x 10^3 iC3b per E) [1]: 21%
- % rosette formation (erythrocytes, 37 x 10^3 iC3b per E) [1]: 39%
- % rosette formation (erythrocytes, 65 x 10^3 iC3b per E) [1]: 60%
- % rosette formation (iC3b microspheres, erythrocytes, buffer) [1]: 75%
- % rosette formation (iC3b microspheres, monocytes, buffer) [1]: 96%
- % rosette formation (monocytes treated with anti-Mac-1, 14 x 10^3 iC3b per E) [1]: 20%
- % rosette formation (monocytes treated with anti-Mac-1, 65 x 10^3 iC3b per E) [1]: 92%
- % rosette formation (neutrophils treated with anti-Mac-1, 14 x 10^3 iC3b per E) [1]: 13%
- % rosette formation (neutrophils treated with anti-Mac-1, 65 x 10^3 iC3b per E) [1]: 100%
- % rosette formation (iC3b microspheres, Raji cells, buffer) [2]: 98%
Substance: iC3b (inactivated C3b) (from UniProt P01024 23-667; P01024 749-1663; P01024 749-1663) (domain or fragment)
